Data from patent US20200283521A1 (GRANULAR THERAPEUTICS, published 2020).
Substitutions are numbered along the chain they refer to. One block for each binder: values may come before it.

Experiments:
Test in all cases: direct ELISA on coated protein, IgG1
h4-1BB-Fc = target: T1, h4-1BB-Fc
T1 construct: member of the panel m9

hDR3-Fc = target: T2, hDR3-Fc (human, UniProt Q93038)
T2 construct: Fc fusion; member of the panel m9
T2 sequence (looked up): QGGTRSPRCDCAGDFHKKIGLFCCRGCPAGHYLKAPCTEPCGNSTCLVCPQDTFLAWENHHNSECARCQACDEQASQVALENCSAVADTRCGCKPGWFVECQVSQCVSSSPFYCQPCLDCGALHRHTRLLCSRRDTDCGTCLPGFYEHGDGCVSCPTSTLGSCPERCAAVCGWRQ

hEpCAM-Fc = target: T3, hEpCAM-Fc (human, UniProt P16422)
T3 construct: Fc fusion; member of the panel m9
T3 sequence (looked up): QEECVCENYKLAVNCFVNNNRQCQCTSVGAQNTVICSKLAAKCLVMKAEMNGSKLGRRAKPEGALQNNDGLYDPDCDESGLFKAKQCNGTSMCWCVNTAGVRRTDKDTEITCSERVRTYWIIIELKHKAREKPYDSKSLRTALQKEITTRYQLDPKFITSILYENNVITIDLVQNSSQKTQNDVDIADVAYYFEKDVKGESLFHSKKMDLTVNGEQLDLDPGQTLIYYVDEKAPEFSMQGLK

hCD4 = target: T4, hCD4 (human, UniProt P01730)
T4 construct: purified recombinant protein; member of the panel m9

hBAFFR-Fc = target: T5, hBAFFR-Fc (human, UniProt Q96RJ3)
T5 construct: Fc fusion; member of the panel m9
T5 sequence (Q96RJ3 7-71 limits assumed): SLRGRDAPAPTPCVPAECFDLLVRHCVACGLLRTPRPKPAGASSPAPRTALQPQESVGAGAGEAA

hCMET-Fc = target: T6, hCMET-Fc (The natural ectodomain is cleaved by furin after residue 307 into disulfide-linked alpha and beta chains. It is given here as one continuous stretch.)
T6 construct: member of the panel m9
T6 chain: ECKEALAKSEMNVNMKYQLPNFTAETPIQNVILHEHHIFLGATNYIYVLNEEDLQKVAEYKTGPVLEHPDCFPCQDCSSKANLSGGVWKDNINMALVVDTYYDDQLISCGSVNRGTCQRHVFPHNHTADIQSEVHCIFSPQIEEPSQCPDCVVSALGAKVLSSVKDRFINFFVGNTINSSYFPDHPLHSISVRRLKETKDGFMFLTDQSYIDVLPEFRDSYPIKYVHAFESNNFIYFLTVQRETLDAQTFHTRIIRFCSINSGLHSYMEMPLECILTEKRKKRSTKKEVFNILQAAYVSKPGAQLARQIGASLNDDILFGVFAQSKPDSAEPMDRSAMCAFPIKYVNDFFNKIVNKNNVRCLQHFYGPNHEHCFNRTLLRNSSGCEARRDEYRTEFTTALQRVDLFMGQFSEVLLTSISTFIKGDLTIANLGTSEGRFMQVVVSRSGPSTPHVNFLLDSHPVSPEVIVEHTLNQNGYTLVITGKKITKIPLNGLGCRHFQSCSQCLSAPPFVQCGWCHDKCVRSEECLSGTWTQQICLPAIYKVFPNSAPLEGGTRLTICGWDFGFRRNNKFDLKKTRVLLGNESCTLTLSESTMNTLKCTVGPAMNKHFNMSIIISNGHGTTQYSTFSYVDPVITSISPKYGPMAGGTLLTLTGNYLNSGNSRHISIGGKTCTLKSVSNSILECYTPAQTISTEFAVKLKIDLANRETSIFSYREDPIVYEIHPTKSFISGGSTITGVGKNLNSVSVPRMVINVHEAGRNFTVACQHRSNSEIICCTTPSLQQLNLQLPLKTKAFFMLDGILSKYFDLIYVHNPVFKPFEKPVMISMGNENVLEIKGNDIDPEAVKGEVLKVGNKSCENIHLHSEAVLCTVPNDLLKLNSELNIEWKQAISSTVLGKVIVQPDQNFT

hDR6-Fc = target: T7, hDR6-Fc (human, UniProt O75509)
T7 construct: Fc fusion; member of the panel m9
T7 sequence (looked up): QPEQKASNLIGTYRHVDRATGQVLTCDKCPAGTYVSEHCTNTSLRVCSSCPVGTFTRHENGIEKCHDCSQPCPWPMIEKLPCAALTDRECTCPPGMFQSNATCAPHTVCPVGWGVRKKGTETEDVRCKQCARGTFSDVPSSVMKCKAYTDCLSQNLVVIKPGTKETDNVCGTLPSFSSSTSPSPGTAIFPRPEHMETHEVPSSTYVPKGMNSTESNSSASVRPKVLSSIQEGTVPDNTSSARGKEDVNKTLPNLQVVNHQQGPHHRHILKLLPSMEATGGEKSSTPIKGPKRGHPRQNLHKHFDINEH

hICAM-1-Fc = target: T8, hICAM-1-Fc (human, UniProt P05362)
T8 construct: Fc fusion; member of the panel m9
T8 sequence (P05362 28-480 limits assumed): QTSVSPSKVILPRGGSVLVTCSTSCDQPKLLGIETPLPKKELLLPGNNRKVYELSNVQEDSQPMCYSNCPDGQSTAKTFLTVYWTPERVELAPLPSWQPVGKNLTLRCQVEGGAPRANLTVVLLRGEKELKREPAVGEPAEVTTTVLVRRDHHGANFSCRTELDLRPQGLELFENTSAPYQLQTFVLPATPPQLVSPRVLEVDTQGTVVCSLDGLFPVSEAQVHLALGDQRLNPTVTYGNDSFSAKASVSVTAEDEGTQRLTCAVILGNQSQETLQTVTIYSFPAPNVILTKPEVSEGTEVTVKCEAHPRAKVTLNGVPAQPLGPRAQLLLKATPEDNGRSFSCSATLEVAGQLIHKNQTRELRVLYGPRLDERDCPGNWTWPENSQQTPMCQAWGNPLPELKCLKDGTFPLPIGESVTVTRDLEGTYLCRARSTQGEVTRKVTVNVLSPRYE

hVCAM-1 = target: T9, hVCAM-1 (human, UniProt P19320)
T9 construct: purified recombinant protein; member of the panel m9
T9 sequence (looked up): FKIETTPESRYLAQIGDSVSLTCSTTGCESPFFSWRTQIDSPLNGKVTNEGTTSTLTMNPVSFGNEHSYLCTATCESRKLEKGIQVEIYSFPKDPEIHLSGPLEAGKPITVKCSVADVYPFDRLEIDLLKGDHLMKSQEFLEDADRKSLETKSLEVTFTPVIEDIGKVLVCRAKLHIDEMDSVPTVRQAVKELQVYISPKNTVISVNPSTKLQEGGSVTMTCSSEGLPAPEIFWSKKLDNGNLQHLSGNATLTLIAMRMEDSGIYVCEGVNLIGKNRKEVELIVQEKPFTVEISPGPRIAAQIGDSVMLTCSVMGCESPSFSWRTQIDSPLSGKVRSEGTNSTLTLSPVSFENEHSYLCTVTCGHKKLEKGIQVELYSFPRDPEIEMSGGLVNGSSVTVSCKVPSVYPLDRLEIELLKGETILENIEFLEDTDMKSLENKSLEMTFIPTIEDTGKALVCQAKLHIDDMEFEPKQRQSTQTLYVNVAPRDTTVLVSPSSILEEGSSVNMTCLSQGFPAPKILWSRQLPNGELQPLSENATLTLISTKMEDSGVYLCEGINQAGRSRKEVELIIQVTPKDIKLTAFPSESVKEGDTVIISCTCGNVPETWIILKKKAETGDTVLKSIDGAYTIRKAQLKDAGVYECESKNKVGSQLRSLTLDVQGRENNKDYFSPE

T1 sequence (chain, as listed by the source limits assumed): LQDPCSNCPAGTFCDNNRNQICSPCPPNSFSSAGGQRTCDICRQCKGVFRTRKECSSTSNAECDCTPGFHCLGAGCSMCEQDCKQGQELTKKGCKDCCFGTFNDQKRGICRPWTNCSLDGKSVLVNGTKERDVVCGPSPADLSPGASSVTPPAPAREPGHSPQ

- binding result (h4-1BB-Fc): no binding (tested: 1 µg/ml)
- binding result (hDR3-Fc): no binding (tested: 1 µg/ml)
- binding result (hEpCAM-Fc): no binding (tested: 1 µg/ml)
B1: MH5, human IgG1 (antibody, V domains shown)
VH: QVQLVQSGAEVKKPGASVKVSCKASGYTFTDYYMNWVRQAPGQGLEWMGRIYPGSGNTYYAQKFQGRVTMTRDTSTSTVYMELSSLRSEDTAVYYCARGVYYYDYWGQGTLVTVSS
VL: DIQMTQSPSSLSASVGDRVTITCRASQGIRTNLAWFQQKPGKAPKSLIYSASSLQSGVPSRFSGSGSGTDFTLTISSLQPEDFATYYCQQYANYPRTFGGGTKVEIK
notes: IgG1; also called C-KIT-MH5; C-KIT-MHS

- binding result (hCD4): no binding (tested: 1 µg/ml)
- binding result (hBAFFR-Fc): no binding (tested: 1 µg/ml)
- binding result (hCMET-Fc): no binding (tested: 1 µg/ml)
- binding result (hDR6-Fc): no binding (tested: 1 µg/ml)
- binding result (hICAM-1-Fc): no binding (tested: 1 µg/ml)
- binding result (hVCAM-1): no binding (tested: 1 µg/ml)
B2: MH5.22 (antibody, IgG1, V domains shown)
VH: B1 VH with Y32F, G54A, Y101W
VL: B1 VL with S50A
notes: IgG1; also called C-KIT-MH5.22
